Results on seven sequences are retold here after the supplement of paper PMC12455559.

Data set [1] in a line: PET hydrolysis, aromatic products released after 48 h (umol product/mg enzyme); higher = more PET depolymerization activity. In outline: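 Tagless, SUMO-cleaved candidate enzymes were purified on nickel beads, and 5 μg (50 μL) was added to 3.5 mg amorphous PET film or crystalline PET powder in 450 μL buffer. Buffers were 50 mM NaCitrate (pH 4.5, 5.5), 50 mM NaPhosphate (pH 6.5, 7.5) or glycine (pH 8.5). Sealed plates were incubated 48 h at 40 or 60 °C without shaking. PET hydrolysis activity is the aromatic product in the supernatant, read by absorbance at 260 and 280 nm against buffer blanks and expressed per mg enzyme.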

Data set [2] can be described thus: melting temperature (DSF); higher = more thermostable. In outline:
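Candidate enzymes were expressed in E. coli C41(DE3), purified on nickel beads and released by SUMO protease cleavage. For differential scanning fluorimetry, 45 μL enzyme (0 to 0.3 mg/mL) was mixed with 5 μL 5X Sypro Orange in sealed PCR plates on a Bio-Rad CFX96 instrument. Fluorescence was read from 25 °C in steps of 0.3 °C per cycle (ramp 0.3 °C/s) for 250 cycles. The read-out is melting temperature.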

Data set [3] can be described thus: purified protein yield per well (BCA); higher = higher soluble expression. In outline:
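The measured quantity is purified protein yield per well, determined with the Pierce Rapid Gold BCA kit. Anything below 25 ug (0.1 mg/mL) lies under the detection threshold. Enzymes were expressed in E. coli C41(DE3) in 2 mL autoinduction cultures with 100 µg/mL kanamycin at 37 °C for 2 h, then 18 °C for 40 h, and purified on an OT-2 robot using Ni-charged magnetic beads and SUMO protease release.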

Where [4] appears, read: substrate: cryPow, 40 °C, pH 4.5.
Where [5] appears, read: substrate: cryPow, 40 °C, pH 5.5.
Where [6] appears, read: substrate: cryPow, 40 °C, pH 6.5.
[7] abbreviates: substrate: cryPow, 40 °C, pH 7.5.
The mark [8] stands for this setting: substrate: cryPow, 60 °C, pH 4.5.
Where [9] appears, read: substrate: cryPow, 60 °C, pH 5.5.
[10] abbreviates: substrate: cryPow, 60 °C, pH 6.5.
[11] abbreviates: substrate: cryPow, 60 °C, pH 7.5.
Setting [12] is: substrate: cryPow, 40 °C, pH 8.5.
The mark [13] stands for this setting: substrate: cryPow, 60 °C, pH 8.5.

With “ADNPYQRGPDPTPTSVTAVNGPFANTSVAVPTGYGFNGGRIYYPTDTSQGTFGAIAISPGYTALFSAELAWMGPWLASHGFVVIGIETNSRNDFDTARGTQLLAALDYLTQQSPVRDRVDPNRLAVAGHSMGGGGALSAATRRSSLKAAVGIAPYSPSSNLANDRVPTMIFAGQADTVVTPSYASGLYNSLPATTESVYLEVAGADHGFMVGRSNPVMVRTMLPFVKMFIDNDTRYSQFLCPLMDSSGVVTSRSTCPLLPSDPTTPTPTPTTPDPTPTVPPGSASEIVGTQSGRCIDVPNASRTNGTRVQLYNCNRQTNQAWTYTSNKQLQVYGTMCLDAAGSGNGAAVQIYSCHSGTNQQWNVNSNGTISGVQSGRCLDVWSTSNGAQVQLYDCHGQTNQQFRLAPLG [ESM132]”, the PET hydrolysis in data set [1] (setting [4]) is less than 3; in data set [1] (setting [5]), 5; in data set [1] (setting [6]), less than 3; in data set [1] (setting [7]) it was less than 3; in data set [1] (setting [8]) it was less than 3; in data set [1] (setting [9]) it was less than 3. For the same sequence, the PET hydrolysis in data set [1] (setting [10]) and in data set [1] (setting [11]) was less than 3 throughout. In data set [2], this sequence registered a melting temperature of 56.2 C. Further, the “purified protein yield per well” value in data set [3] was determined as 144 µg.
For “ATNPYQRGPAPTAESISAERGSFAVADSAVSADSVSGFGGGTVYYPTDTSAGKFGAVAIAPGFTANEWSLAWLGPRLASHGFVVFIIDTITTGDQPAQRGDELRAALSYLTTSSPVRDRVDPARLGVMGHSMGGGGALQAAEDDPSIRAVIPMTPYDLDSPSPKVTAPTLIIGAQDDTIAPVAYHARPFYESLTSARAKEYIELRNQSHFAPNYPNATIASASIAWLKRYIDDDQRYQPFACPAQVGSWLISDFRSAC [DP034]”, the PET hydrolysis was less than 3 in data set [1] (substrate: aFilm, 40 °C, pH 5.5); less than 3 in data set [1] (substrate: aFilm, 40 °C, pH 6.5); less than 3 in data set [1] (substrate: aFilm, 40 °C, pH 7.5); less than 3 in data set [1] (substrate: aFilm, 40 °C, pH 8.5); less than 3 in data set [1] (substrate: aFilm, 60 °C, pH 5.5); less than 3 in data set [1] (substrate: aFilm, 60 °C, pH 6.5). Further, the PET hydrolysis was less than 3 in data set [1] (substrate: aFilm, 60 °C, pH 7.5); less than 3 in data set [1] (substrate: aFilm, 60 °C, pH 8.5); less than 3 in data set [1] (setting [5]); less than 3 in data set [1] (setting [6]); less than 3 in data set [1] (setting [7]); less than 3 in data set [1] (setting [12]). The PET hydrolysis in data set [1] (setting [9]), in data set [1] (setting [10]), in data set [1] (setting [11]) and in data set [1] (setting [13]) was less than 3 each time. The same sequence returned a melting temperature in data set [2] of 47.5 C. The “purified protein yield per well” value in data set [3] came out at 180 µg.
For the sequence “AQENPYERGPAPTAQNITEDGPFAYATATVPAQSGFAGGAIYYPTDTSQGTFGAVAAVPGFLTPVDDVAWMGPRLASHGFVVFTIEPNSRFEFPSGRAAALKAGLTYLTQSSAVRDRVDPTRLAVAGHSMGGGAALEAALKDPNLKAAVALQPWHTGVNFSTVNVPSMIVGAENDPIASPASHAEPFYEQIPAASEKAYLNLAGVGHEVGGVVTNDTQSSMMLTWLKRYVDNDTRYEPFMCPGPSGSSVLEYRGTCPG [TEP170]”, the PET hydrolysis in data set [1] (setting [4]), in data set [1] (setting [5]), in data set [1] (setting [6]), in data set [1] (setting [7]), in data set [1] (setting [8]) and in data set [1] (setting [9]) was less than 3 in each case. For the same sequence, the PET hydrolysis in data set [1] (setting [10]) and in data set [1] (setting [11]) was less than 3 throughout. Also, the melting temperature in data set [2] was 49.3 C. In addition, the “purified protein yield per well” value in data set [3] is 137 µg.
As for “QYQKGPDPTVAGLERDGTFAIRTTTVSRLSASGFGGGTIYYPTATGSYGVVAVSPGFTAYQSSISWIGSRLASHGFVVITIDTNTTSDQPDSRARQLKAALDKVVSLASSRTNVLYGKVDSSRLAVAGHSMGGGGSLAAARDYPSLKASVPLAPWHTTKSFSTVRVPTLIVGADGDTVASVTSHSIPFYTSIPSSTPKGYLELNNEDHFFPQDSGEYGLVGKYMISWFKRFVDSDTRYSPFLCGAPHQTQIANTLRVSDSRTNCPY [DP038]”, the PET hydrolysis in data set [1] (setting [5]) is 6; in data set [1] (setting [6]) it was 55; in data set [1] (setting [7]), 59; in data set [1] (setting [12]), 54; in data set [1] (setting [9]) it was less than 3; in data set [1] (setting [10]), less than 3. For the same sequence, the PET hydrolysis in data set [1] (setting [11]) and in data set [1] (setting [13]) was less than 3 each time. Also, in data set [2], the melting temperature is 56.2 C. Moreover, the “purified protein yield per well” value in data set [3] turned out to be 54 µg.
With “AAGYERGPNPTSSALEATRGPFSVASTNVSSLSASGFGGGTIYYPTDTSQGTFGGVVIAPGYTASKSSMAWLAERLASHGFVVFNIDTITRSDQPDSRGRQILAAADHLAEESSSTVRRRLDASRIGVMGHSMGGGGTLAAADSRPSLKAAVPLTPWHLDKSWGNVRVPTMIIGAENDTIAAVGSHSEPFYNSLSAAPEKAYLELNGASHFAPNSDNDTIAKYGISWMKRFVDEDTRYDQFLCPAPGRSTTIEEYRSSCPHS [DP086]”, the PET hydrolysis in data set [1] (setting [5]), in data set [1] (setting [6]), in data set [1] (setting [7]), in data set [1] (setting [12]), in data set [1] (setting [9]) and in data set [1] (setting [10]) was less than 3 each time. The PET hydrolysis in data set [1] (setting [11]) and in data set [1] (setting [13]) was less than 3 throughout. The sequence also showed a melting temperature in data set [2] of 39.1 C. Also, in data set [3], the “purified protein yield per well” value is 90 µg.
“SNPAPDTGSGDGSSSQYQIGPDPTVSFLEASSGPFSVRTSNVSSLVSGFGGGTIHYPTGVNRPMAAIVVIPGFVSAESSIDWWGPKLASYGFVVMTIGTNSGFDQPPSRARQINNALDYLVAQNTNSRSPVNGMIDTNRLGAMGWSMGGGGTLRVAEEGRIKAAIPLAPWDTTSFRSNRTPTLIFACGSDSIAPVRTHASPFYNQIPTSTPKIFIEINRGNHYCANGGNSNNATLGRLGVAWMKRFLDEDRRYSQFLCGPRHTSDRNISESRDTCNF [ESM186]”: the PET hydrolysis in data set [1] (setting [4]) is less than 3; in data set [1] (setting [5]), less than 3; in data set [1] (setting [6]) it was 3; in data set [1] (setting [7]) it was 13. Moreover, in data set [2], the melting temperature stood at 53.8 C. Moreover, the “purified protein yield per well” value in data set [3] amounted to 43 µg.
Turning to “MPPPDSGAAAHERVHAEPSDPATVGSAGGNPFARGPDPTLASVAAEFGPFATTQLSVPPGHGFNGGYVYYPTDASPTFGAVAIVPGYTALFADEEAWMGPRLASFGFVVIGIETNSREDWDRARGAQLLAALDYVTQHSTVRTRVDSSRLAVIGHSMGGGGAFAAATRRPSLKAVVGLAPYFPSGDLATVRVPTLIIGGQRDTTVTPSYLDDLYATLPTRTPSAYLMLADADHLFPTRPNPVEMRLLIPWLKIFVDRDTRYVRFLCPLADRSGIAQYRVTCPLVPPA [TEP003]”, the PET hydrolysis in data set [1] (setting [4]), in data set [1] (setting [5]), in data set [1] (setting [6]), in data set [1] (setting [7]), in data set [1] (setting [8]) and in data set [1] (setting [9]) was less than 3 in each case. For the same sequence, the PET hydrolysis in data set [1] (setting [10]) and in data set [1] (setting [11]) was less than 3 throughout. Also, in data set [2], the melting temperature turned out to be 67.6 C. In data set [3], the “purified protein yield per well” value was 152 µg.
